Measurements taken from US20220153875A1 (Chugai, published 2022).
Positions count from the first letter of the chain named.

Experiments:
[1] = biological target: T1, human IgA (hIgA) (human); assay: SPR (Biacore T200), antibody captured on ProA/G on CM4 chip, hIgA as analyte, single cycle kinetics, 25 C, in the presence of 100 µM MTA; 100 µM MTA in the antigen buffer
T1 chain: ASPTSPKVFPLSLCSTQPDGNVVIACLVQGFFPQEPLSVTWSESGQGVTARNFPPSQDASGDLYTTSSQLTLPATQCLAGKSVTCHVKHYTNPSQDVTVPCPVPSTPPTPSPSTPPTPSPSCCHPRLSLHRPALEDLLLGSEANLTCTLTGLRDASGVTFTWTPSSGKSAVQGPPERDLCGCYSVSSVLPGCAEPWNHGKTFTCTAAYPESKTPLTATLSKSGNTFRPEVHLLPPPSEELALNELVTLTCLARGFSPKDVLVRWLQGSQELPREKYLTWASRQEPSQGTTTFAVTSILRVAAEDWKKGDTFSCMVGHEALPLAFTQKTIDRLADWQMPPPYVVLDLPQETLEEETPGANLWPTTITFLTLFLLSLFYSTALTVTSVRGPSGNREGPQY

[2] = biological target: T2, human IL-6 receptor (hIL-6R) (human, UniProt P08887 20-357, limits assumed); assay: SPR (Biacore T200), antibody captured on ProA/G on CM4 chip, hIL-6R as analyte, single cycle kinetics, 25 C, in the presence of 100 µM MTA; 100 µM MTA in the antigen buffer
T2 sequence: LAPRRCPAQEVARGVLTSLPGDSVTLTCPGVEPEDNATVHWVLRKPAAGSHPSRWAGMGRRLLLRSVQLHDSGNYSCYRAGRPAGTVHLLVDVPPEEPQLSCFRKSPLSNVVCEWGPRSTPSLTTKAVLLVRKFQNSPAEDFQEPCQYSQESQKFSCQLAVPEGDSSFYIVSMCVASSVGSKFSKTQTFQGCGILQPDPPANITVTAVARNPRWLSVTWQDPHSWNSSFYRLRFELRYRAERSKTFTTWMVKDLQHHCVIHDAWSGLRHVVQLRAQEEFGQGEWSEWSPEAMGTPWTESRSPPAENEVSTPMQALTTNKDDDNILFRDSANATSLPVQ
Experimental: (§1) The effects of MTA and adenosine on the antigen-antibody reaction between the antibodies purified and produced in Example (4-5) and the target antigens were evaluated using Biacore T200 (GE Healthcare). 20 mM ACES, 150 mM NaCl, 0.05% (w/v) Tween20, pH 7.4 was used as the running buffer, and the measurement was performed at 25° C. Changes in the amount of binding between antigens and antibodies were observed by immobilizing ProA/G on the sensor chip CM4 by amine coupling, immobilizing the antibody on it, and then interacting with various antigens as analytes. The running buffer and a buffer prepared by adding either MTA or adenosine to the running buffer at a final concentration of 100 μM were used to dilute the antigens. In addition, the antigens were prepared in concentration series of several steps, and the dissociation constant KD of each clone was calculated by single cycle kinetics analysis from the sensorgram for each antigen concentration. Biacore T200 Evaluation Software (GE Healthcare) was used to calculate the parameters.

[3] = biological target: human IL-6 (hIL-6) (human); assay: SPR (Biacore T200), antibody captured on ProA/G on CM4 chip, hIL-6 as analyte, single cycle kinetics, 25 C, in the presence of 100 µM MTA; 100 µM MTA in the antigen buffer
human IL-6 (hIL-6) (human), sequence (P05231 30-212): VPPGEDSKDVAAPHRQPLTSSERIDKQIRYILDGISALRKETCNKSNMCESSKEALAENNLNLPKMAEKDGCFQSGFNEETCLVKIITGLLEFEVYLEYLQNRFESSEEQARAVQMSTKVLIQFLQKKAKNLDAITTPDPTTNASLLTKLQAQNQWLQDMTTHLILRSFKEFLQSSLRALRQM
Experimental: as §1

B1: IAS2T001H-F760mnN17/IAS2T001L-KT0 (antibody, human IgG1, kappa, N297A, V domains shown)
VH: QVQLVQSGAEVKKPGASVKVSCKVSDIQDEQYAFGWVRQPPGKGLEWIGIIGATGHVWYPQWVKGRFTISKDNSKNQVVLTMTNMDPVDTATYYCARGHKQHFTNAFDPWGQGTLVTVSS
VL: DIQLTQSPSSLSASVGDRVTITCQSSQSVYKNNYLSWYQQKPGQPPKLLIYDASTLASGVPSRFSGSGSGTDFTLTINSLEAEDAATYYCHGAYLYLGVDNAFGGGTEVVVKR
notes: From the MTA-concentrated S02 library; Target antigen is hIgA
Binder B1 has a Kd [1] of 689 nM.

B2: 6RS2T007H-F760mnN17/6RS2T007L-KT0 (antibody, human IgG1, kappa, N297A, V domains shown)
VH: QVQLVQSGAEVKKPGASVKVSCKVSNIVLMQHTYGWVRQPPGKGLEWIGIIGGDGHAWYPRWVKGRFTISKDNSKNQVVLTMTNMDPVDTATYYCARGGKDGFTNAWDPWGQGTLVTVSS
VL: DIQLTQSPSSLSASVGDRVTITCQSSQSVFNNNGLSWYQQKPGQPPKLLIYDASTLASGVPSRFSGSGSGTDFTLTINSLEAEDAATYYCHGSQATQIWWDNAFGGGTEVVVKR
notes: From the MTA-concentrated S02 library (humanized SMB0002 template); also called MTA-dependent anti-hIL-6R antibody
With B2 the Kd [2] was 1010 nM.

B3: 6LS2T001H-F760mnN17/6LS2T001L-KT0 (antibody, human IgG1, kappa, N297A, V domains shown)
VH: QVQLVQSGAEVKKPGASVKVSCKVSDIDAMQYTYGWVRQPPGKGLEWIGIIGEGGEVWYPYWVKGRFTISKDNSKNQVVLTMTNMDPVDTATYYCARGYHEGFVNAWDPWGQGTLVTVSS
VL: B2 VL with Q3K, F30L, N31W, G34Y, A95F, T96E, I98W, W99V, W100F
notes: From the MTA-concentrated S02 library; Target antigen is hIL-6
B3 showed a Kd [3] of 126 nM.
